According to publication PMC8897147 (Acta Pharmaceutica Sinica. B, 2021):

T1: GHRHR (Homo sapiens, UniProt Q02643)
T1 sequence (Q02643 23-423): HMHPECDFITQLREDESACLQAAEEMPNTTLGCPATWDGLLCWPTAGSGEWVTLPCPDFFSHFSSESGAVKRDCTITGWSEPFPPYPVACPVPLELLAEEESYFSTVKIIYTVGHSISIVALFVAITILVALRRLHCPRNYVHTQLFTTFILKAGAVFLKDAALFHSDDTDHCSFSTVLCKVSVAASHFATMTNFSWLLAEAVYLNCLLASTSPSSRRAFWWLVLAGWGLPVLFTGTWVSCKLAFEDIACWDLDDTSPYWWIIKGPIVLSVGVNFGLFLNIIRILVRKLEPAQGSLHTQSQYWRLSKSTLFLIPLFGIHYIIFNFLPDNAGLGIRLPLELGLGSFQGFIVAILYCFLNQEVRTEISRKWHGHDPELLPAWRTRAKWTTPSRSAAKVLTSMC

T2: SV1 (Homo sapiens, UniProt Q02643)
T2 sequence (Q02643 90-423 limits assumed): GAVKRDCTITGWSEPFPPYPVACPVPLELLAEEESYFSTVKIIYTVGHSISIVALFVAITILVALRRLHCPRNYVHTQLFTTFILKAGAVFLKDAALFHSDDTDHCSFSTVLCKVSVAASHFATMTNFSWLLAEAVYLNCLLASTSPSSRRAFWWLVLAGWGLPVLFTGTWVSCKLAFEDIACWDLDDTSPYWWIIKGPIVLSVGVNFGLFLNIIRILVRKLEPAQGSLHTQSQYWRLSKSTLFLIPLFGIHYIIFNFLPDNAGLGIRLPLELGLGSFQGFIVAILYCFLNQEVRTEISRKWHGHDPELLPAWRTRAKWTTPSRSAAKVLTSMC

T3: GIPR (Homo sapiens, UniProt P48546)
T3 sequence (P48546 22-466): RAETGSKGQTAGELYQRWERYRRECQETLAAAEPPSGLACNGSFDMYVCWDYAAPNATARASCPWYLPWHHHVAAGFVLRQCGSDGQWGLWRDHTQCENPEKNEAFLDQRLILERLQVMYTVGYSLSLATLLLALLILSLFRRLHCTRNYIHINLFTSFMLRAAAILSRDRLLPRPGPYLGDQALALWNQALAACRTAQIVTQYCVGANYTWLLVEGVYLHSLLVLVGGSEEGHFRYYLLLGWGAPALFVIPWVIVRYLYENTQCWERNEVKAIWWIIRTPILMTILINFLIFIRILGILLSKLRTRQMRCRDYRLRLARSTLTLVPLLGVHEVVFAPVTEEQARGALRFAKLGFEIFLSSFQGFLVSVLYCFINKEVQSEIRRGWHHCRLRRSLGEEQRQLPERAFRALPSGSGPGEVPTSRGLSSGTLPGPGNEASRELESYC

T4: GLP-2R (Homo sapiens, UniProt O95838)
T4 sequence (O95838 1-553): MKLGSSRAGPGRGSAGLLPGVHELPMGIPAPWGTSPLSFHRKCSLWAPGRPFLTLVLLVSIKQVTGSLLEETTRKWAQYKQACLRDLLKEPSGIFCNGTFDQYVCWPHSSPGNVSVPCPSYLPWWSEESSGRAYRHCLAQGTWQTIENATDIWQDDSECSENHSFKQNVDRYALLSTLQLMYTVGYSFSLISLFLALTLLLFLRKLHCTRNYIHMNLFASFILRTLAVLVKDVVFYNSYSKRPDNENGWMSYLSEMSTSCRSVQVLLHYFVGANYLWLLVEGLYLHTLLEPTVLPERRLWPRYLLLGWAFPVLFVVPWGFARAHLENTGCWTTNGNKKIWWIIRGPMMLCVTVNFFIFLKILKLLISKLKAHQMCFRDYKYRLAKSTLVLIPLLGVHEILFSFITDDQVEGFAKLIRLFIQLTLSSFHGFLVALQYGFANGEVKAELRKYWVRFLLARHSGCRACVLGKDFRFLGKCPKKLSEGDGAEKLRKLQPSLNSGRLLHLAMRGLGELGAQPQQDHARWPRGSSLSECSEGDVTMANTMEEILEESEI


How the values were obtained:
CLR = CLR (Homo sapiens, UniProt Q16602); test: BRET GPCR–RAMP interaction; assay type: binding; conditions: COS-7; receptor-Rluc8:RAMP-Ypet 1:0.25 to 1:16; pH 7.4, 37 °C; mean ± SEM n≥3
Chain of CLR (Q16602 23-461): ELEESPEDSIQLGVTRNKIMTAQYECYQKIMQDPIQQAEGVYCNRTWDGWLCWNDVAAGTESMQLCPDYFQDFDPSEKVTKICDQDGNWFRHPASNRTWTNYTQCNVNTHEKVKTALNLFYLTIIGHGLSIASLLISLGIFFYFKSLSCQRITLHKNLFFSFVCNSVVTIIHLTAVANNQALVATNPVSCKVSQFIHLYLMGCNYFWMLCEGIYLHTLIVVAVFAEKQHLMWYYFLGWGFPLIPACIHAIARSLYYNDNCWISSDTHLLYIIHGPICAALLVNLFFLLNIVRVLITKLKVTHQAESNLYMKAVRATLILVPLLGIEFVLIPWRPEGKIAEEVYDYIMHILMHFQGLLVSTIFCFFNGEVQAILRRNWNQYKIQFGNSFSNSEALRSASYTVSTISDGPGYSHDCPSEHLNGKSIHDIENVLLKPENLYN

GCGR [1] = molecular target: T5, GCGR (Homo sapiens, UniProt P47871); test: BRET GPCR–RAMP interaction; assay type: binding; conditions: COS-7; receptor-Rluc8:RAMP-Ypet 1:0.25 to 1:16; pH 7.4, 37 °C; mean ± SEM n≥3
T5 sequence (P47871 26-477, species assumed): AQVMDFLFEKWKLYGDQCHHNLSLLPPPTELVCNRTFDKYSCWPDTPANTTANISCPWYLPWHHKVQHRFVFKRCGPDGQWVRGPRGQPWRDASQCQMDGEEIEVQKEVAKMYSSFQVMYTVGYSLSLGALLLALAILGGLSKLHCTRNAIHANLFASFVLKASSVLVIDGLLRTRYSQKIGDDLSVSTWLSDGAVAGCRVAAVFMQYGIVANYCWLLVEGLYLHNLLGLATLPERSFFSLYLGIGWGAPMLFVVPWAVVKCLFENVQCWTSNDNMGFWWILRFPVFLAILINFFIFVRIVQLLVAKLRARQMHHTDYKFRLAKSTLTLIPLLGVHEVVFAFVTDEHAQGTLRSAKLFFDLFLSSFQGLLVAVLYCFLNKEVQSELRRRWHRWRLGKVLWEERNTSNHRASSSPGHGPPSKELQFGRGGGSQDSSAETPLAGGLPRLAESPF

GHRHR [2] = molecular target: T1, GHRHR; test: BRET GPCR–RAMP interaction; assay type: binding; conditions: COS-7; receptor-Rluc8:RAMP-Ypet 1:0.25 to 1:16; pH 7.4, 37 °C; mean ± SEM n≥3
SV1 [3] = molecular target: T2, SV1; test: BRET GPCR–RAMP interaction; assay type: binding; conditions: COS-7; receptor-Rluc8:RAMP-Ypet 1:0.25 to 1:16; pH 7.4, 37 °C; mean ± SEM n≥3
GIPR = molecular target: T3, GIPR; test: BRET GPCR–RAMP interaction; assay type: binding; conditions: COS-7; receptor-Rluc8:RAMP-Ypet 1:0.25 to 1:16; pH 7.4, 37 °C; mean ± SEM n≥3
GLP-1R = GLP-1R (Homo sapiens, UniProt P43220); test: BRET GPCR–RAMP interaction; assay type: binding; conditions: COS-7; receptor-Rluc8:RAMP-Ypet 1:0.25 to 1:16; pH 7.4, 37 °C; mean ± SEM n≥3
Chain of GLP-1R (P43220 24-463): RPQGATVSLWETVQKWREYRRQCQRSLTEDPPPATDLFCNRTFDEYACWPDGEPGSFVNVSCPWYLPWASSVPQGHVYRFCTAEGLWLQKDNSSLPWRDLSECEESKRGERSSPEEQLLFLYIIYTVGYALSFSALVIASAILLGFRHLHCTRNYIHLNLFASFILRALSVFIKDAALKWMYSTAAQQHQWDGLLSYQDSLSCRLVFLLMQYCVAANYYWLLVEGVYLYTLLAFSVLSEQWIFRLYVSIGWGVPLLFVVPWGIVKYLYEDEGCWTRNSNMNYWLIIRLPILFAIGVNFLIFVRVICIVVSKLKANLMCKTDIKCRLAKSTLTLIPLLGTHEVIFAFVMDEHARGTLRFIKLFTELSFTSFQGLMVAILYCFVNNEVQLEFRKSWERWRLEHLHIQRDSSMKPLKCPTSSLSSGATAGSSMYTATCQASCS

GLP-2R [4] = molecular target: T4, GLP-2R; test: BRET GPCR–RAMP interaction; assay type: binding; conditions: COS-7; receptor-Rluc8:RAMP-Ypet 1:0.25 to 1:16; pH 7.4, 37 °C; mean ± SEM n≥3
SCTR = test: BRET GPCR–RAMP interaction; assay type: binding; conditions: COS-7; receptor-Rluc8:RAMP-Ypet 1:0.25 to 1:16; pH 7.4, 37 °C; mean ± SEM n≥3
COS-7 cells = test: RAMP cell surface expression; assay type: cell-based
GHRHR [5] = molecular target: T1, GHRHR; test: cAMP accumulation; conditions: COS-7; RAMP3
SV1 [6] = molecular target: T2, SV1; test: cAMP accumulation; conditions: COS-7; RAMP3
GLP-2R [7] = molecular target: T4, GLP-2R; test: Gαq activation; assay type: cell-based; conditions: HEK293A; RAMP2
GCGR [8] = molecular target: T5, GCGR; conditions: CHO-K1 ref [38]; cited from earlier work
GCGR [9] = molecular target: T5, GCGR; conditions: CHO-K1 ref [38]; cited from earlier work; remark: listed apart in the source

Molecule	Bmax (maximum measured BRET value) (CLR)	Bmax (maximum measured BRET value) (GCGR [1])	Bmax (maximum measured BRET value) (GHRHR [2])	Bmax (maximum measured BRET value) (SV1 [3])	Bmax (maximum measured BRET value) (GIPR)	Bmax (maximum measured BRET value) (GLP-1R)	Bmax (maximum measured BRET value) (GLP-2R [4])	Bmax (maximum measured BRET value) (SCTR)	RAMP cell surface expression (COS-7 cells; co-expression with GCGR, FLAG-RAMP)	RAMP cell surface expression (COS-7 cells; co-expression with SCTR, FLAG-RAMP, effect of receptor on RAMP3)	RAMP cell surface expression (COS-7 cells; co-expression with SV1, FLAG-RAMP)	effect of RAMP on cAMP response (GHRHR [5])	effect of RAMP on cAMP response (SV1 [6])	effect of RAMP on potency, Gαq activation (GLP-2R [7])	RAMP cell surface expression (COS-7 cells; co-expression with glucagon receptor family members, FLAG-RAMP)	Gαq signaling (GCGR [8])	β-arrestin recruitment (GCGR [9])
receptor activity-modulating protein 3 (protein, left off: Ypet, C-terminal, kept) RAGGCNETGMLERLPLCGKAFADMMGKVDVWKWCNLSEFIVYYESFTNCTEMEANVVGCYWPNPLAQGFITGIHRQFFSNCTVDRVHLEDPPDEVLIPLIVIPVVLTVAMAGLVVWRSKRTDTLL	0.511 ± 0.058	1.102 ± 0.165	0.948 ± 0.139	1.842 ± 0.754	0.729 ± 0.061	0.862 ± 0.100	0.689 ± 0.128	0.995 ± 0.058	negative	negative	negative	no effect	marked response	–	–	–	–
receptor activity-modulating protein 2 (protein, left off: Ypet, C-terminal, kept) QPLPTTGTPGSEGGTVKNYETAVQFCWNHYKDQMDPIEKDWCDWAMISRPYSTLRDCLEHFAELFDLGFPNPLAERIIFETHQIHFANCSLVQPTFSDPPEDVLLAMIIAPICLIPFLITLVVWRSKDSEAQA	0.468 ± 0.042	0.578 ± 0.072	0.393 ± 0.025	0.843 ± 0.102	0.474 ± 0.122	0.397 ± 0.092	0.567 ± 0.234	0.434 ± 0.051	–	–	–	–	–	nominal reduction	negligible	attenuated Gαq signaling	abolished β-arrestin recruitment
